Data reported in article PMC5984625, “Dynamic structural states of ClpB involved in its disaggregation function” (Nature Communications, 2018).
Several values for one entry are separate records, joined by “and”; a condition that tells them apart may be missing. Equal values may be shown once.

How the values were obtained:
[1] = target: N-terminal deletion mutant of TClpB (ΔN-TClpB) (Thermus thermophilus); test: native MS; incubated at 55 °C with 2 mM ATP or ATPγS for 1 min, exchanged into 150 mM ammonium acetate pH 7.5 with 100 µM ATP or ATPγS at 4 °C; nanoflow electrospray
[2] = target: N-terminal deletion mutant of TClpB (ΔN-TClpB) (Thermus thermophilus); test: high-speed atomic force microscopy (HS-AFM); self-association; sample preincubated with 2 mM ATP at 55 °C for 1 min, adsorbed on bare mica, imaged at 25 °C in 50 mM MOPS pH 7.5, 20 mM KCl, 5 mM MgCl2 with ATP (10 μM to 2 mM for ΔN-TClpB, 0.5 mM for full length, 1 mM for the mutants; also 1 mM ATPγS or ADP)
[3] = target: N-terminal deletion mutant of TClpB (ΔN-TClpB) (Thermus thermophilus); test: AUC; sedimentation velocity, 20 °C, 42,000 rpm, 50 mM MOPS pH 7.5, 50 mM KCl, 5 mM MgCl2, 0.5 and 2.0 mg/mL protein, with 20 mM ATP (preincubated 55 °C 1 min)
[4] = target: N-terminal deletion mutant of TClpB (ΔN-TClpB) (Thermus thermophilus); test: AUC; sedimentation velocity, 20 °C, 42,000 rpm, 50 mM MOPS pH 7.5, 50 mM KCl, 5 mM MgCl2, 0.5 and 2.0 mg/mL protein, with 20 mM ADP (preincubated 55 °C 1 min)
[5] = target: N-terminal deletion mutant of TClpB (ΔN-TClpB) (Thermus thermophilus); test: AUC; sedimentation velocity, 20 °C, 42,000 rpm, 50 mM MOPS pH 7.5, 50 mM KCl, 5 mM MgCl2, 0.5 and 2.0 mg/mL protein, with 2 mM ATPγS (preincubated 55 °C 1 min)
[6] = tested on: T1, Nc1ncnc2c1ncn2[C@@H]1O[C@H](COP(=O)(O)OP(=O)(O)OP(=O)(O)O)[C@@H](O)[C@H]1O; test: purified protein; format: biochemical, Thermus thermophilus; details: Hill equation fit, Hill coefficient 2.6 ± 0.6, pH 7.5, 20 mM KCl, 5 mM MgCl2, 25 °C
T1 construct: N-terminal domain deletion (AAA1, M-domain and AAA2 kept); from plasmid pMCB1; expressed in E. coli BL21(DE3) or KRX; purified; hexamer and smaller oligomers

[7] = target: ΔN-TClpB hyperactive mutant Y494D (Thermus thermophilus); test: high-speed atomic force microscopy (HS-AFM); self-association; sample preincubated with 2 mM ATP at 55 °C for 1 min, adsorbed on bare mica, imaged at 25 °C in 50 mM MOPS pH 7.5, 20 mM KCl, 5 mM MgCl2 with ATP (10 μM to 2 mM for ΔN-TClpB, 0.5 mM for full length, 1 mM for the mutants; also 1 mM ATPγS or ADP)
[8] = target: ΔN-TClpB repressed mutant E423A (Thermus thermophilus); test: as above

ΔN-TClpB (Thermus thermophilus HB8), sequence (chain, as listed by the source mutant): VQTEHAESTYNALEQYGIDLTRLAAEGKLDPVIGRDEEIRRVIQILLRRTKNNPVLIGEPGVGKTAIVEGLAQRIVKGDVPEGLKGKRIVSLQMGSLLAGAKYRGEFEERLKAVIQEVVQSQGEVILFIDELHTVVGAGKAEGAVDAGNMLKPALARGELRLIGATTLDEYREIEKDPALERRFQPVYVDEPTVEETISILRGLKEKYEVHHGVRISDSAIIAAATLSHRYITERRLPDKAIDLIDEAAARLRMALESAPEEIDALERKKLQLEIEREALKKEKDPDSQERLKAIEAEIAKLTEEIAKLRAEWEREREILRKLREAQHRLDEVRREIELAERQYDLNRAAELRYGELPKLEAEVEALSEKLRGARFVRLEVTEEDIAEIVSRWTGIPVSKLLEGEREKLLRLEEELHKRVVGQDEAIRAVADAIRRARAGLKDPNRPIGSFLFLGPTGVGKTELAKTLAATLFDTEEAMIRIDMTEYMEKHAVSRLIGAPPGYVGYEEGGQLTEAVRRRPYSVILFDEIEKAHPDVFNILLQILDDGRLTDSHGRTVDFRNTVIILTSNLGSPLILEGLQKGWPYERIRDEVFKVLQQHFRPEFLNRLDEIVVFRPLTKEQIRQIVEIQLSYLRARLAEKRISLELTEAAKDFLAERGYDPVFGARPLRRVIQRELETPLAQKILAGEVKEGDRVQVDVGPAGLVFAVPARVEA

Substance: N-terminal deletion mutant of TClpB (ΔN-TClpB) (domain or fragment)
- stoichiometry N [1]: 2 and 6
- stoichiometry N [2]: 6 and 3 to 8 (2×)
- stoichiometry N [3]: 6 and 3
- stoichiometry N [4]: < 6
- stoichiometry N [5]: 6

Substance: ΔN-TClpB (Thermus thermophilus HB8)
- K0.5 [6]: 0.16 ± 0.02 mM

Substance: ΔN-TClpB hyperactive mutant Y494D (domain or fragment)
- stoichiometry N [7]: 6

Substance: ΔN-TClpB repressed mutant E423A (domain or fragment)
- stoichiometry N [8]: 6
